This note sets out measurements from US9388387B2, “Differentiation of human embryonic stem cells” (Janssen Biotech, Inc., priority 2008, dated 2016).

For this assay, the system named is cells of the human embryonic stem cell line H1 differentiated to stage 6. Kind of assay: Real-time PCR gene expression profile of stage 6 cultures +/- activin A, enriched using a 40 μm filter. The format is cell-based. Particulars: 10 ng/ml activin A added at stage 6 for seven days, H1 cells passage 43, FIG. 4 panels a-f. As to the method: (1:30 dilution) coated dishes and exposed to RPMI medium supplemented with 2% BSA (Catalog#152401, MP Biomedical, Ohio), and 100 ng/ml activin A (R&D Systems, MN) plus 20 ng/ml WNT-3a (Catalog#1324-WN-002, R&D Systems, MN) plus 8 ng/ml of bFGF (Catalog#100-18B, PeproTech, NJ), for one day followed by treatment with RPMI media supplemented with 2% BSA and 100 ng/ml activin A plus 8 ng/ml of bFGF for an additional two days. Next the cultures were treated with DMEM/F12+2% BSA+50 ng/ml FGF7+0.25 μM Cyclopamine-KAAD (#239804, Calbiochem, CA) for two days, followed by four days incubation in DMEM/F12+1% B27 (Invitrogen, CA)+50 ng/ml FGF7+0.25 μM Cyclopamine-KAAD+2 μM Retinoic acid (RA) (Sigma, MO)+100 ng/ml of Noggin (R & D Systems, MN).
Cells were differentiated into pancreatic endocrine cells by incubating the cells in DMEM/F12+1% B27 (Invitrogen, CA)+100 ng/ml Noggin+1 μM DAPT (a gamma-secretase inhibitor) (Catalog#565784, Calbiochem, CA)+1 μM ALK5 inhibitor II (Catalog#616452, Calbiochem, Ca)+100 ng/ml of Netrin-4 (R&D Systems, MN) for three days followed by additional seven days incubation in DMEM/F12+1% B27 (Invitrogen, CA)+1 μM ALK5 inhibitor II (Calbiochem, Ca). […] At each stage cell number was calculated using a hemocytometer and RNA was collected for PCR analysis. […]
A general note: Real-time PCR tracks product formation cycle by cycle.

B1: activin A: a member of the TGF-β superfamily; TGF-β receptor agonist (R&D Systems, MN) (protein, UniProt P08476 311-426, looked up)
Inhibin beta A chain: GLECDGKVNICCKKQFFVSFKDIGWNDWIIAPSGYHANYCEGECPSHIAGTSGSSLSFHSTVINHYRMRGHSPFANLKSCCVPTKLRPMSMLYYDDGQNIIKKDIQNMIVEECGCS
For the molecule B1, the “expression of pancreatic endocrine markers (pdx-1, nkx6-1, Pax4, nkx2.2, insulin, glucagon)” value is listed as “significantly boosted expression of all key pancreatic endocrine markers”.
